Earlier results on 1 substance are cited in patent US4183849A, “Therapeutic insulin preparation and a process for the production of a stable insulin preparation with protracted effect” (Nordisk Insulinlaboratorium, priority 1975, dated 1980).

For this data set the following is noted: impurities of recrystallized insulin, stated as known.

As to proinsulin, the antigenicity entry was “highly antigenic”.
